Results reported in the nanobody polyreactivity screen of Harvey et al. (2022).

Experiment: yeast display, Sf9 membrane polyspecificity reagent, FACS + sequencing; frameworks hold sequencing errors
Summary of the method: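 A nanobody's polyreactivity label depends on the gate it was sorted from. Yeast display cells were stained with 10% biotinylated, detergent-solubilized Sf9 membrane reagent for 1 hour at 4 °C, enriched on streptavidin microbeads and sorted by FACS. The low and high (top ~1%) gates were set on anti-HA fluorescence for expression and streptavidin fluorescence for reagent binding.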

Row | Sequence | polyreactivity (PSR sort gate)
1 | QVQLVESGGGLVQAGGSLRLSCAASGRTFSRYTMGWYRQAPGKEREFVAAISVNGGTTHYADSVKGRFTISRDNAKNTVYLQMNSLKPEDTAVYYCAARNYLARRYGYWGQGTQVTVSS | high polyreactivity
2 | QVQLVESGGGLVQAGGSLRLSCAASGRTFSSNAMGWYRQAPGKERELVASISFRGGRTYYADSVKGRFTISRDNAKNTVYLQMYSLKPEDTAVYYCVSGTKRTGYGYWGQGTQVTVSS | high polyreactivity
3 | QVQLVESGGGLVQAGGSLRLSCAASGRTFSSYAKGWYRQAPGKERELVAAITSGGSTYYADSVKGRFTISRDNAKNTVYLQMNSLKPDDTAVYYCAAEQHGYYWHSWNRYIFYYWGQGTQVTVSS | high polyreactivity
4 | QVQLVESGGGLVQAGGSLRLSCAASGRTFSSYAMGWYRQAPGKEREFVAAISRSGASTRYADSVKGRFTISRDNAKNTVYLQMNSLKPEDTAVYYCAAVWPDVRGYDYWGQGTQVTVSS | high polyreactivity
5 | QVQLVESGGGLVQAGGSLRLSCAASGRTFSSYAMGWYRQAPGKERELVAAIDSGGNTYADSVKGRFTISRDNAKNTVYLQMNSLKPEDTAVYYCAVDGGEFSSYGYWGQGTQVTVSS | low polyreactivity
6 | QVQLVESGGGLVQAGGSLRLSCAASGRTFSSYAMGWYRQAPGKERELVAAINWSGASTYYADSVKGRFTISRDNAKNTVYLQMNSLKPEDTAVYYCAKSLYVGKYWQIRSSVDYWGQGTQVTVSS | low polyreactivity
7 | QVQLVESGGGLVQAGGSLRLSCAASGRTFSTNAMGWYRQAPGKERELVAAITASGGSTYYADSVKGRFTISRDNAKNTVYLQMNSLKPEDTAVYYCAKRYRAYHYGWWYDYWGQGTQVTVSS | high polyreactivity
8 | QVQLVESGGGLVQAGGSLRLSCAASGRTFSTYAMGWYRQAPGKERELVAAISTSGSRTYYADSVKGRFTISRDNAKNTVYFQMNSLKPEDTAVYYCAATPLYYRYYVWQYDYWGQGTQVTVSS | high polyreactivity
9 | QVQLVESGGGLVQAGGSLRLSCAASGRTFSTYAMGWYRQAPGKERELVAAITTSGGNTYYADSVKGRFTISRDNAKNTVYLQMNSLKPEDTAVYYCNAKQQPYGGTDYDYWGQGTQVTVSS | low polyreactivity
10 | QVQLVESGGGLVQAGGSLRLSCAASGRTFSVNAMGWYRPAPGKERELVAAISWDGGSTYYADSVKGRFTISRDNAKNTVYLQMNSLKPEDTAVYYCNKDLYYAYDYWGQGTQVTVSS | low polyreactivity
11 | QVQLVESGGGLVQAGGSLRLSCAASGRTFSVNVMGWYRQAPGKERELVAAISWSGGNTYYADSVKGRFTISRDNAKNTVYLQMNSLKPEDTAVYYCNTDFADSNYDSSYGYWGQGTQVTVSS | low polyreactivity
12 | QVQLVESGGGLVQAGGSLRLSCAASGRTFSVYAMGWYRQAPGKERELVAAISGRGGRTYYADSVKGRFTISRDNAKNTVYLQMNSLKPEDTAVYYCTADVGVYHDDYWGQGTQVTVSS | high polyreactivity
13 | QVQLVESGGGLVQAGGSLRLSCAASGRTFSVYAMGWYRQAPGKESELVAGITGNGGSTYYADSVKGRFTISRDNAKNTVYLQMNSLKPEDTAVYYCATAYWDIITRGEYGYWGQGTQVTVSS | low polyreactivity
14 | QVQLVESGGGLVQAGGSLRLSCAASGRTFSVYVMGWYRQAPGKERELVAAISSSGGRTYYADSVKGRFTISRDNAKNTVYLQMNSLKPEDTAVYYCAAETIVFYVEYNYWGQGTQVTVSS | low polyreactivity
15 | QVQLVESGGGLVQAGGSLRLSCAASGRTFSWNAMGWYRQAPGKERELVAAISNSGGSTYYADSVKGRFTISRDNAKNTVYLQMNSLKPEDTAVYYCAVYRYYGFSLWYDYWGQGTQVTVSS | low polyreactivity
16 | QVQLVESGGGLVQAGGSLRLSCAASGRTFSWYAMGWYRQAPGKERELVAAISSSGGSTYYADSVKGRFTISRDNAKNTVYLQMNSLKPEDTAVYYCAVRYYSSLSQRYYSWGQGTQVTVSS | high polyreactivity
17 | QVQLVESGGGLVQAGGSLRLSCAASGRTFSWYVMGLYRQAPGKERELVASISGSGGSTYYADSVKGRFTISRDNAKNTVYLQMNSLKPEDTAVYYCARDYFFRSRSDYWGQGTQVTVSS | high polyreactivity
18 | QVQLVESGGGLVQAGGSLRLSCAASGRTFSWYVMGWSRQAPGKERALVAAISWNGGRTYYADSVKGRFTISRDNAKNTVYLQMNRLKPEDTAVYYCATGPDPKYDYWGQGTQVTVSS | high polyreactivity
19 | QVQLVESGGGLVQAGGSLRLSCAASGRTFSYNAIGWYRQAPGKERTNYADSVKGRFTISRDNAKNTVYLQMNSLKPEDTAVYYCAVEPYLSYPPTSIDNDYDYWGQGTQVTVSS | low polyreactivity
20 | QVQLVESGGGLVQAGGSLRLSCAASGRTFSYNTMGWYRQAPGKERELVAAIDSDGSTNYADSVKGRFTISRDNAKNTVYLQMNSLKPEDTAVYYCAADRFQCGFWWLEYWGQGTQVTVSS | high polyreactivity
21 | QVQLVESGGGLVQAGGSLRLSCAASGRTFSYYAMGWYRPAPGKEREFVAAISSTGTSTYYADSVKGRFTISRDNAKNTVYLQMNSLKPEDTAVYYCNARVATYRLHSKFYYWGQGTQVTVSS | high polyreactivity

Row | Sequence | polyreactivity (PSR sort gate)
22 | QVQLVESGGGLVQAGGSLRLSCAASGRTFSYYAMGWYRQAPGKERELGAANSGGGRTNYADSVKGRFTISRDNAKNTVYLQMNSLKPEDTAVYYCAAGASRKYQYYSRSYDYWGQGTQVTVSS | high polyreactivity
23 | QVQLVESGGGLVQAGGSLRLSCAASGRTFSYYAMGWYRQAPGKERELVARITYRGGRTYYADSVKGRFTISRDNAKNTVYLQMNSLKPEDTAVYYCATTSWRYGYDYWGQGSQVTVSS | high polyreactivity
24 | QVQLVESGGGLVQAGGSLRLSCAASGRTFSYYTLGWYRQAPGKERELVARISNRGTNTYYADSVKGRFTISRDNAKNTVYLQMNSLKPEDTAVYYCAAYTPPVYWLTRAIRGYYWGQGTQVTVSS | low polyreactivity
25 | QVQLVESGGGLVQAGGSLRLSCAASGRTFSYYTMGWYRQAPGKERQLVARISNRGTNTYYADSVKGRFTISRDNAKNTVYLQMNSLKPEDTAVYYCAKYYYTSIVGYDSWGQGTQVTVSS | low polyreactivity
26 | QVQLVESGGGLVQAGGSLRLSCAASGRTFTFYAMGWYRQAPGKERELVATISYSGGRTYYADSVKGRFTISRDNAKNTVYLQMNSLKPEDTAVYYCATSVSGPWWKLYYWGQGTQVTVSS | low polyreactivity
27 | QVQLVESGGGLVQAGGSLRLSCAASGRTFTGNAMGWYRQAPGKERELVAAISTSGTRTSYADSVKGRFTISRDNAKNTVYLQMNSLKPEDTAVYYCAALRKSLYRTYTYDYWGQGTQVTVSS | high polyreactivity
28 | QVQLVESGGGLVQAGGSLRLSCAASGRTFTGNAMGWYRQAPGKVRELVADINLSGGDTYYADSVKGRFTISRDNAKNTVYLQMNSLKPEDTAVYYCAADIVYSSDYGPGDYWGQGTQVTVSS | high polyreactivity
29 | QVQLVESGGGLVQAGGSLRLSCAASGRTFTGYAMGWYRQAPGKERELVAAITSNGARTYYADSVKGRFTISRDNAKNTVYLQMNSLKPEDTAVYYCNRVRVYTHTAWGDDYWGQGTQVTVSS | low polyreactivity
30 | QVQLVESGGGLVQAGGSLRLSCAASGRTFTGYAMGWYRQAPGKERELVAGISRRGGSTNYADSVKGRFTISRDNSKNTVYLQMNSLKQEDPAVYYCKKRYSLWDEDYWGQGTQVTVSS | high polyreactivity
31 | QVQLVESGGGLVQAGGSLRLSCAASGRTFTHYAMGWYRQAPGKERELVAAISRSGGTTYYADSVKGRFTISRDNAKNTVYLQMNSLKPEDTAVYYCAARWWYRYNYDYWGQGTQVTVSS | high polyreactivity
32 | QVQLVESGGGLVQAGGSLRLSCAASGRTFTINAMGWYRQAPGKERELVATISYSGGSTRYADSVKGRFTISRDNAKNTVYLQMNSLQPDDTAVYYCAADAGYYGRWYGHGYGYWGQGTQVTVSS | high polyreactivity
33 | QVQLVESGGGLVQAGGSLRLSCAASGRTFTKYAMGWYRQAPGKERELVAAISNSGGSTFYADSVKGRFTISRDNAKNTVYLQMNSLKPEDTAVYYCAVDLGDTQYVPFDYWGQGTQVTVSS | low polyreactivity
34 | QVQLVESGGGLVQAGGSLRLSCAASGRTFTLYTMGWYRQAPGKERELVAAIRYSGGSTYYADSVKGRFTISRDNAKNTVYLHMNSLKPEDTAVYYCAARSYYYGFLYRYDYWGQGTQVTVSS | low polyreactivity
35 | QVQLVESGGGLVQAGGSLRLSCAASGRTFTNYAMGWYRQAPGKERELVAAAITVGGGRTYYADSVKGRFTISRDNAKNTVYLQMNSLKPEDTAVYYCATDFGTYWYEYWGQGTQVTVSS | high polyreactivity
36 | QVQLVESGGGLVQAGGSLRLSCAASGRTFTRNAMGWYRQAPGKERELVAVITSSGRTNYADSVKGRFTISRDNAKKTVYLQMNSLKPEDTAVYYCNKVSARYPYPLYDYWGQGTQVTVSS | high polyreactivity
37 | QVQLVESGGGLVQAGGSLRLSCAASGRTFTRNAMGWYRQAPGKERELVAVITSSGRTNYADSVKGRFTISRDNAKNTVYLQMNSLKPEDTAVYYCNKVSARYPYPLYDYWGQGTQVTVSS | high polyreactivity
38 | QVQLVESGGGLVQAGGSLRLSCAASGRTFTRYAMGLYRQAPGKERELVAGITGRAGSTYYADSVKGRFTISRDNAKNTVYLQMNSLKPEDTAVYYCAADAGYRRSSLYEYDYWGHGTQVTVSS | low polyreactivity
39 | QVQLVESGGGLVQAGGSLRLSCAASGRTFTRYAMGWYRQAPGKERELVAAISRSGGSTHYADSVKGRFTISRDNAKNTVYLQMNSLKPEDTAVYFCNTVGYRGRSNSRFYYWGQGTQVTVSS | high polyreactivity
40 | QVQLVESGGGLVQAGGSLRLSCAASGRTFTRYARGWYRQAPGKERELVAVISWSVGSTYYADSVKGRFTISRDNAKNTVYLQMNSLKPEDTAVYYCNSDVLSWSQEYDYWGQGTQVTVSS | low polyreactivity
41 | QVQLVESGGGLVQAGGSLRLSCAASGRTFTRYVMGWYRQAPGKESELVAVISSGGRTYYADSVKGRFTISRDNAKNTVYLQMNSLKPEDTAVYYCAAVTHPAWAVEYDYWGQGTQVTVSS | high polyreactivity
